The test system of assay [1] is rabbit anti-PIF polyclonal antibody. Nature of the assay: PIF colorimetric ELISA using rabbit polyclonal antibody, epitope mapping with PIF peptides of various length. The format is binding. The note with it: for % recovery by Rabbit Polyclonal Antibody: representative value of three repeats; for recovery by PIF colorimetric ELISA using rabbit polyclonal antibody: Table 3, spike concentration not given. The method, then:
(§1) To study PIF peptide and its derivatives of different length for binding to rabbit anti-PIF monoclonal antibody and rabbit anti-PIF polyclonal antibody, PIF peptides of various lengths as listed in Table 2 was synthesized, reconstituted in PBS and two different concentrations were tested by respective colorimetric ELISA following standard protocol. The standards were run in duplicate and the samples were run in triplicate and repeated three times.
In general terms: ELISA stands for enzyme-linked immunosorbent assay.

Assay [2] relates to rabbit anti-PIF monoclonal antibody. Nature of the assay: PIF colorimetric ELISA using rabbit anti-PIF monoclonal antibody, epitope mapping with PIF peptides of various length. The class given is binding. The settings on record: for % Recovery by Rabbit Monoclonal Antibody: representative value of three repeats; for recovery by PIF colorimetric ELISA using rabbit anti-PIF monoclonal antibody: Table 3, spike concentration not given. As for the experimental part:
as §1

The target in assay [3] is T1, rabbit monoclonal anti-PIF antibody Clone #30.
T1 chain 1: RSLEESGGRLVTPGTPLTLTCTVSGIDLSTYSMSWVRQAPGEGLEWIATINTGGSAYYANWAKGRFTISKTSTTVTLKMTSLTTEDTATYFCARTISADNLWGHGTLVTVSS
T1 chain 2: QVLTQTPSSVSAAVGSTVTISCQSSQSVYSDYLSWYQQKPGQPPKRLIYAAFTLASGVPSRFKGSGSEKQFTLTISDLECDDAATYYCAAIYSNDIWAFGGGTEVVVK
Nature of the assay: competitive ELISA; Clone #30 via goat anti-rabbit; competitor biotin-PIF tracer.

Assay [4] deals with T1, rabbit monoclonal anti-PIF antibody …. Described as above.
Assay [5] shares this target. Put plainly: competitive microarray immunoassay; Clone #30 on goat anti-rabbit spots; competitor A647-sPIF tracer.
Assay [6] shares this target. Put plainly: ELISA; Clone #30 via goat anti-rabbit; biotin-PIF tracer without unlabeled PIF.

Several values for one entry are separate records, joined by “and”; a condition that tells them apart may be missing. Equal entries are not always repeated. Where two headings read alike, the source gives them in different places. Ends that are not written are not given here.

Take “P1-7: PIF peptide, amino acid locations 1-7 (M V R I K P G) (MVRIKPG) [Clone P1-7]”: the “% recovery by Rabbit Polyclonal Antibody” value in assay [1] (spike concentration 100 ng/ml) and in assay [1] (spike concentration 200 ng/ml) was 0% throughout. In addition, the “% Recovery by Rabbit Monoclonal Antibody” value in assay [2] (spike concentration 100 ng/ml) and in assay [2] (spike concentration 200 ng/ml) was 0% throughout.
Consider “P8-13: PIF peptide, amino acid locations 8-13 (S A N K P S) (SANKPS) [Clone P8-13]”, for which the “% recovery by Rabbit Polyclonal Antibody” value in assay [1] (spike concentration 100 ng/ml) and in assay [1] (spike concentration 200 ng/ml) was 0% in each case. The “% Recovery by Rabbit Monoclonal Antibody” value in assay [2] (spike concentration 100 ng/ml) and in assay [2] (spike concentration 200 ng/ml) was 0% in each case.
For the molecule MVRIKPGSANKPSDD [Clone P1-15], the “recovery by PIF colorimetric ELISA using rabbit polyclonal antibody” value (shortened to “recovery … using rabbit polyclonal antibody”) in assay [1] is on record as 100%. The figures for the “% recovery by Rabbit Polyclonal Antibody” value in assay [1] (spike concentration 500 ng/ml) and in assay [1] (spike concentration 1000 ng/ml) were 115.0% and 101.4%, respectively. For the same molecule, the “recovery by PIF colorimetric ELISA using rabbit anti-PIF monoclonal antibody” value in assay [2] was determined as 100%. For the same molecule, the “% Recovery by Rabbit Monoclonal Antibody” value in assay [2] (spike concentration 500 ng/ml) and in assay [2] (spike concentration 1000 ng/ml) was 100.0% throughout.
Regarding “P1-13: PIF peptide, amino acid locations 1-13 (M V R I K P G S A N K P S) (MVRIKPGSANKPS) [Clone P1-13]”, the “recovery … using rabbit polyclonal antibody” value in assay [1] is “about 40%”. The “% recovery by Rabbit Polyclonal Antibody” value in assay [1] (spike concentration 100 ng/ml) stood at 49.8%; in assay [1] (spike concentration 200 ng/ml), 31.1%. Further, the “% Recovery by Rabbit Monoclonal Antibody” value in assay [2] (spike concentration 100 ng/ml) and in assay [2] (spike concentration 200 ng/ml) was 0% in each case.
Regarding “P10-15: PIF peptide, amino acid locations 10-15 (N K P S D D) (NKPSDD) [Clone P10-15]”, the “% recovery by Rabbit Polyclonal Antibody” value in assay [1] (spike concentration 100 ng/ml) and in assay [1] (spike concentration 200 ng/ml) was 0% in each case. For the same molecule, the “% Recovery by Rabbit Monoclonal Antibody” value in assay [2] (spike concentration 100 ng/ml) and in assay [2] (spike concentration 200 ng/ml) was 0% throughout.
Regarding “P8-15: PIF peptide, amino acid locations 8-15 (S A N K P S D D) (SANKPSDD) [Clone P8-15]”, the “% recovery by Rabbit Polyclonal Antibody” value in assay [1] (spike concentration 100 ng/ml) and in assay [1] (spike concentration 200 ng/ml) was 0% throughout. For the same molecule, the “% Recovery by Rabbit Monoclonal Antibody” value in assay [2] (spike concentration 100 ng/ml) and in assay [2] (spike concentration 200 ng/ml) was 0% in each case.
For the molecule “P5-10: PIF peptide, amino acid locations 5-10 (K P G S A N) (KPGSAN) [Clone P5-10]”, the “% recovery by Rabbit Polyclonal Antibody” value in assay [1] (spike concentration 100 ng/ml) and in assay [1] (spike concentration 200 ng/ml) was 0% throughout. Further, the “% Recovery by Rabbit Monoclonal Antibody” value in assay [2] (spike concentration 100 ng/ml) and in assay [2] (spike concentration 200 ng/ml) was 0% each time.
Regarding “P1-14: PIF peptide, amino acid locations 1-14 (M V R I K P G S A N K P S D) (MVRIKPGSANKPSD) [Clone P1-14]”, in assay [1], the “recovery … using rabbit polyclonal antibody” value is “about 40%”. The “% recovery by Rabbit Polyclonal Antibody” value is given as 44.6% in assay [1] (spike concentration 100 ng/ml) and 30.0% in assay [1] (spike concentration 200 ng/ml). The “recovery by PIF colorimetric ELISA using rabbit anti-PIF monoclonal antibody” value in assay [2] is “about 3.8%”. For the same molecule, the “% Recovery by Rabbit Monoclonal Antibody” value in assay [2] (spike concentration 100 ng/ml) and in assay [2] (spike concentration 200 ng/ml) was 3.8% each time.
Take MVRIKPGSANKPSDD (modifications not checked) [preimplantation factor (PIF), full-length 15-amino acid peptide]: in assay [3], the % Bound at 1 pg/mL stood at 96.6%, the % Bound at 10 pg/mL stood at 93.6%, the % Bound at 25 pg/mL came to 91.1% and the % Bound at 250 pg/mL was 81.4%. In addition, in assay [3], the % Bound at 500 pg/mL worked out at 69.9%, the AvgNetRLU at 1 pg/mL is 2.3e+07 RLU, the AvgNetRLU at 10 pg/mL was 2.23e+07 RLU and the AvgNetRLU at 25 pg/mL is 2.16e+07 RLU. In assay [3], this molecule gave an AvgNetRLU at 250 pg/mL of 1.93e+07 RLU, an AvgNetRLU at 500 pg/mL of 1.66e+07 RLU, a MeanValues (RLU) at 1 pg/mL of 2.82e+07 RLU and a MeanValues (RLU) at 10 pg/mL of 2.74e+07 RLU. Besides, in assay [3], the MeanValues (RLU) at 25 pg/mL was found to be 2.68e+07 RLU; the MeanValues (RLU) at 250 pg/mL was 2.45e+07 RLU; the MeanValues (RLU) at 500 pg/mL worked out at 2.18e+07 RLU; the Values (RLU) at 1 pg/mL is 2.86e+07 RLU and 2.77e+07 RLU. In addition, in assay [3], the Values (RLU) at 10 pg/mL is 2.79e+07 RLU and 2.7e+07 RLU; the Values (RLU) at 25 pg/mL was 2.72e+07 RLU and 2.65e+07 RLU; the Values (RLU) at 250 pg/mL is 2.48e+07 RLU and 2.43e+07 RLU; the Values (RLU) at 500 pg/mL was 2.23e+07 RLU and 2.13e+07 RLU. Moreover, in assay [4], the % Bound at 1 pg/mL turned out to be 93.7%, the % Bound at 5 pg/mL was found to be 92.8%, the % Bound at 10 pg/mL was 91.7% and the % Bound at 25 pg/mL is 90%. In assay [4], this molecule had a % Bound at 50 pg/mL of 87%, a % Bound at 100 pg/mL of 89.9%, a % Bound at 250 pg/mL of 77.3% and a % Bound at 500 pg/mL of 61.1%. Further, in assay [4], the % Bound at 1000 pg/mL stood at 49.8%, the % Bound at 2000 pg/mL was found to be 27%, the AvgNetRLU at 1 pg/mL worked out at 2.23e+07 RLU and the AvgNetRLU at 5 pg/mL was found to be 2.21e+07 RLU. In assay [4], this molecule showed an AvgNetRLU at 10 pg/mL of 2.18e+07 RLU, an AvgNetRLU at 25 pg/mL of 2.14e+07 RLU, an AvgNetRLU at 50 pg/mL of 2.07e+07 RLU and an AvgNetRLU at 100 pg/mL of 2.14e+07 RLU. Besides, in assay [4], the AvgNetRLU at 250 pg/mL is 1.84e+07 RLU, the AvgNetRLU at 500 pg/mL was determined as 1.45e+07 RLU, the AvgNetRLU at 1000 pg/mL is 1.18e+07 RLU and the AvgNetRLU at 2000 pg/mL came out at 6.41e+06 RLU. In assay [4], the MeanValue (RLU) at 1 pg/mL was 2.75e+07 RLU, the MeanValue (RLU) at 5 pg/mL is 2.73e+07 RLU, the MeanValue (RLU) at 10 pg/mL came to 2.7e+07 RLU and the MeanValue (RLU) at 25 pg/mL stood at 2.66e+07 RLU. In assay [4], this molecule showed a MeanValue (RLU) at 50 pg/mL of 2.59e+07 RLU, a MeanValue (RLU) at 100 pg/mL of 2.66e+07 RLU, a MeanValue (RLU) at 250 pg/mL of 2.36e+07 RLU and a MeanValue (RLU) at 500 pg/mL of 1.97e+07 RLU. In assay [4], the MeanValue (RLU) at 1000 pg/mL was 1.7e+07 RLU; the MeanValue (RLU) at 2000 pg/mL worked out at 1.16e+07 RLU; the Values (RLU) at 1 pg/mL was 2.77e+07 RLU and 2.73e+07 RLU; the Values (RLU) at 5 pg/mL is 2.75e+07 RLU and 2.7e+07 RLU. Moreover, in assay [4], the Values (RLU) at 10 pg/mL was 2.72e+07 RLU and 2.68e+07 RLU; the Values (RLU) at 25 pg/mL came out at 2.66e+07 RLU; the Values (RLU) at 50 pg/mL is 2.64e+07 RLU and 2.53e+07 RLU; the Values (RLU) at 100 pg/mL is 2.69e+07 RLU and 2.62e+07 RLU. For the same molecule, in assay [4], the Values (RLU) at 250 pg/mL is 2.37e+07 RLU and 2.34e+07 RLU; the Values (RLU) at 500 pg/mL is 2.03e+07 RLU and 1.91e+07 RLU; the Values (RLU) at 1000 pg/mL was 1.75e+07 RLU and 1.66e+07 RLU; the Values (RLU) at 2000 pg/mL is 1.19e+07 RLU and 1.14e+07 RLU. In assay [5], this molecule gave a % B/B0 at 15.625 pg/mL of 122%, a % B/B0 at 31.25 pg/mL of 69%, a % B/B0 at 62.5 pg/mL of 38% and a % B/B0 at 125 pg/mL of 43%. In assay [5], this molecule returned a % B/B0 at 250 pg/mL of 19%, an Average Mean RFU of bound tracer at 15.625 pg/mL of 10900 RFU, an Average Mean RFU of bound tracer at 31.25 pg/mL of 6170 RFU and an Average Mean RFU of bound tracer at 62.5 pg/mL of 3350 RFU. In assay [5], this molecule yielded an Average Mean RFU of bound tracer at 125 pg/mL of 3850 RFU, an Average Mean RFU of bound tracer at 250 pg/mL of 1690 RFU and an Average Mean RFU of bound tracer at 500 pg/mL of 285 RFU.
On to MVRIKPGSANKPSDD (not fully specified) [biotin labeled PIF], for which, in assay [6], the % Bound, tracer alone (0 pg/mL PIF) was 96%; the AvgNetRLU, tracer alone (0 pg/mL PIF) was determined as 2.28e+07 RLU; the MeanValue (RLU), tracer alone (0 pg/mL PIF) is 2.8e+07 RLU; the Values (RLU), tracer alone (0 pg/mL PIF) is 2.86e+07 RLU and 2.74e+07 RLU.

The record behind these values is US20230400471A1, “SYSTEMS, COMPOSITIONS AND METHODS OF DETERMINING VIABILITY OF EMBRYOS USING THE SAME” (BioIncept, LLC, priority 2020, published 2023).
